Among the data in the supplement of paper PMC10567573 are protein stability index values, retold here.

The data set can be described thus: protein stability index of a GFP-peptide fusion (GPS, HEK-293T) (PSI 1-6); higher = more stable. Particulars: c terminus: a fixed tail appended.

± gives the standard deviation.
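Further: 24-mer peptide tiles fused after GFP, lentivirally expressed, FACS-sorted into six equal bins by GFP/DsRed ratio, decoded by Illumina sequencing, PSI is the read-weighted mean bin number.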

Take RYRQAGSSGPGNSQNSFLVQEVME [RPAIN]: the protein stability index was found to be 4.17 ± 0.23 (treatment: DMSO) and 3.82 ± 0.28 (treatment: MLN4924 1 uM, 8 h).
As to SADVNARDKNWQTPLHVAAANKAV [ANKRD44], the protein stability index is 4.18 ± 0.31 (treatment: DMSO) and 4.07 ± 0.18 (treatment: MLN4924 1 uM, 8 h).
The matching figures for SADVVSPSGHSDAQTLAMMLQEQL [PPFIA4]: 4.54 ± 0.32 and 4.97 ± 0.35.
For the sequence SAGVGRTGVFITLSIVLERMRYEG [PTPRD], the protein stability index amounted to 2.08 ± 0.095 (treatment: DMSO) and 2.34 ± 0.28 (treatment: MLN4924 1 uM, 8 h).
The like results for SAMALVKHSVLLSASRKSAEQLRI [WEE1] were, in that order, 2.06 ± 0.093 and 2.16 ± 0.13.
The like results for SARDCKFTGNFFYNYMMGIEFNPR [DHCR7] were, in that order, 2.24 ± 0.44 and 2.07 ± 0.59.
The matching figures for SARMSAGLPGPEAARSGDAAANKL [PLEKHN1]: 5.22 ± 0.085 and 4.92 ± 0.18.
SARQGELQKVLLMLVDGIDPNFKM [EHMT1] gave a protein stability index (treatment: DMSO) of 1.98 ± 0.23 and a protein stability index (treatment: MLN4924 1 uM, 8 h) of 2.04 ± 0.29.
The like results for SASASTTTTVTAVTAEVDLFGDAF [SNAP91] were, in that order, 4.28 ± 0.28 and 4.28 ± 0.29.
In the case of SASEMKQLIDNILEESDIDRDGTI [CIB1], the protein stability index reads like this: (treatment: DMSO) 5.31 ± 0.27; (treatment: MLN4924 1 uM, 8 h) 5.45 ± 0.2.
Take SASLEVVKKDHVALQVPRGKEDST [CBY2]: the protein stability index by setting is: (treatment: DMSO) 5.4 ± 0.16; (treatment: MLN4924 1 uM, 8 h) 5.35 ± 0.23.
The matching figures for SCAWSLNIQANNCFSTGLSRRVLL [DCAF4]: 3.38 ± 0.47 and 2.35 ± 0.38.
As to SCLKAIVLFTSDACGLSDVAHVES [NR2F2], the protein stability index was 2.43 ± 0.7 (treatment: DMSO) and 2.08 ± 0.36 (treatment: MLN4924 1 uM, 8 h).
The matching figures for SCVIPLRHGGLSLVQTTDFFYPLV [SEPHS2]: 2.42 ± 0.34 and 2.31 ± 0.45.
The matching figures for SCYQVYCGRYINGHMLQHHGNSGH [HDAC6]: 2.49 ± 0.54 and 2.21 ± 0.16.
Consider SDTPYDSSASYEKENEMMKSHVMD [IKZF1], for which the protein stability index (treatment: DMSO) stood at 5.2 ± 0.31 and the protein stability index (treatment: MLN4924 1 uM, 8 h) turned out to be 5.13 ± 0.2.
The matching figures for SEALLYALVHDHQAYAHYLLATFP [ANKRD9]: 2.7 ± 0.49 and 2.61 ± 0.53.
Turning to SEEAPSTSGMGFHAPKIGSNGVEM [SDE2], the protein stability index runs as follows: (treatment: DMSO) 4.92 ± 0.17; (treatment: MLN4924 1 uM, 8 h) 4.89 ± 0.1.
Regarding SEEQLQEPITGWRKTVCHNGVLGL [LPCAT4], the protein stability index by setting is: (treatment: DMSO) 3.58 ± 0.45; (treatment: MLN4924 1 uM, 8 h) 3.64 ± 0.38.
The matching figures for SEHLKQRREVAKTVFCLVVIFALC [EDNRA]: 2.58 ± 1.3 and 3.31 ± 0.89.
On to SEPFLTPYLLGPDKNLTEREVFNE [SLC19A2], for which the protein stability index runs as follows: (treatment: DMSO) 4.8 ± 0.053; (treatment: MLN4924 1 uM, 8 h) 4.83 ± 0.062.
As for SETLEQKPHFESSTVKTETISFGS [EPB41L3], the protein stability index reads like this: (treatment: DMSO) 5.19 ± 0.073; (treatment: MLN4924 1 uM, 8 h) 4.95 ± 0.34.
Turning to SFAQATQLGDLHTCLMMDMKACQE [INTS3], the protein stability index stood at 3.21 ± 0.19 (treatment: DMSO) and 3.3 ± 0.43 (treatment: MLN4924 1 uM, 8 h).
The matching figures for SFELLVRFFACPSKATFSRNIMNL [KCNA3]: 3.16 ± 0.46 and 2.96 ± 0.25.
Regarding SGDAAAQPAFTGIKGKEGSALTEG [EPB41L3], the protein stability index by setting is: (treatment: DMSO) 5.55 ± 0.24; (treatment: MLN4924 1 uM, 8 h) 5.32 ± 0.33.
For the sequence SGFWGVARHFNYVGDLMGSLAYCL [DHCR7], the protein stability index is, setting by setting: (treatment: DMSO) 2.11 ± 0.48; (treatment: MLN4924 1 uM, 8 h) 2.07 ± 0.11.
As for SGGVASFICQATGDPRPKIVWNKK [PTPRD], the protein stability index amounted to 3.46 ± 0.49 (treatment: DMSO) and 3.58 ± 0.11 (treatment: MLN4924 1 uM, 8 h).
Sequence SGKSEISELRRTMQALEIELQSQL [KRT17] registered a protein stability index (treatment: DMSO) of 3.58 ± 0.35 and a protein stability index (treatment: MLN4924 1 uM, 8 h) of 3.68 ± 0.15.
The matching figures for SGRKNSTSKDLVTLGASSLREERG [C6orf223]: 4.77 ± 0.099 and 4.87 ± 0.26.
SGTGKKEKEKKNRKGKDKENGSVS [EIF5] showed a protein stability index (treatment: DMSO) of 5.36 ± 0.24 and a protein stability index (treatment: MLN4924 1 uM, 8 h) of 5.31 ± 0.21.
Regarding SGTIMKIGIEAKNLASYDVCSILL [MCOLN1], the protein stability index stood at 2.87 ± 0.55 (treatment: DMSO) and 2.64 ± 0.37 (treatment: MLN4924 1 uM, 8 h).
The like results for SGTPKRYSLELGKAIKQKLWEALC [C22orf31] were, in that order, 2.9 ± 0.67 and 2.9 ± 0.37.
As to SGYDGTFLFQKPGDKYEHHSYMGM [POMT2], the protein stability index amounted to 2.68 ± 0.23 (treatment: DMSO) and 2.5 ± 0.5 (treatment: MLN4924 1 uM, 8 h).
Turning to SIPQSSLEPLKAIIQYRLPMKKNN [ACSBG2], the protein stability index stood at 3.48 ± 0.14 (treatment: DMSO) and 3.49 ± 0.3 (treatment: MLN4924 1 uM, 8 h).
For the sequence SKAWHQKSHFQNSREWSGKEKWWD [PBXIP1], the protein stability index (treatment: DMSO) worked out at 2.94 ± 0.04 and the protein stability index (treatment: MLN4924 1 uM, 8 h) turned out to be 3.2 ± 0.34.
The matching figures for SKDCKPPVYLLLELEDKDGLQSAQ [MYBL2]: 3.93 ± 0.18 and 3.87 ± 0.12.
The matching figures for SKIPHILKEMYDADLLEEEVIISW [EIF5]: 2.19 ± 0.38 and 2.4 ± 0.24.
The like results for SKQLTLEQLRREKIDLENTLEQEQ [CCDC6] were, in that order, 5.43 ± 0.26 and 5.2 ± 0.11.
With SKRLAVPCKLEKMRILAHGELVLA [TLE6], the protein stability index reads like this: (treatment: DMSO) 2.26 ± 0.49; (treatment: MLN4924 1 uM, 8 h) 2.35 ± 0.45.
The like results for SKYENYFSASERLSLKRELSWYRG [HESX1] were, in that order, 2.44 ± 0.26 and 2.31 ± 0.33.
Consider SLDKRQGEGLRIYWGSPEEQSLLS [TPRG1], for which the protein stability index reads like this: (treatment: DMSO) 2.77 ± 0.15; (treatment: MLN4924 1 uM, 8 h) 2.85 ± 0.39.
The like results for SLEIEEKINKIRWLPQQNAAYFLL [PPP2R2B] were, in that order, 2.34 ± 1.1 and 2.01 ± 1.1.
The like results for SLQLVFGIELMEVDPIGHLYIFAT [MAGEA3] were, in that order, 2.91 ± 0.23 and 2.74 ± 0.76.
In the case of SLQQMQELSNILNLSYKQVKTWFQ [NANOGP8], the protein stability index turned out to be 2.27 ± 0.34 (treatment: DMSO) and 2.16 ± 0.12 (treatment: MLN4924 1 uM, 8 h).
The sequence SLRSSSSKLAQLTLEQILEHLDNL [INTS3] had a protein stability index (treatment: DMSO) of 2.31 ± 0.2 and a protein stability index (treatment: MLN4924 1 uM, 8 h) of 2.55 ± 0.26.
The matching figures for SLRTLKPEGNILRDRFKSFQRRNM [NOP53]: 3.22 ± 0.23 and 3.21 ± 0.21.
Consider SMDIARGLMVTCGTDRIVKIWDMT [WDFY1], for which the protein stability index runs as follows: (treatment: DMSO) 2.25 ± 0.43; (treatment: MLN4924 1 uM, 8 h) 1.92 ± 0.33.
The like results for SMHKYQPRLHIVKADENNGFGSKN [TBX5] were, in that order, 3.94 ± 0.4 and 4.24 ± 0.33.
The like results for SNQEVLQSCLLVIFATKPHVLPAV [PYCR3] were, in that order, 3.34 ± 0.4 and 3.01 ± 0.34.
The matching figures for SPGHSSAGQEGEDTLRRRLLAPEA [TOR1AIP2]: 4.29 ± 0.052 and 4.51 ± 0.27.
As to SPSPSSRVTVSRASSSRSVRTTRG [LMNB1], the protein stability index stood at 5.08 ± 0.27 (treatment: DMSO) and 5.12 ± 0.09 (treatment: MLN4924 1 uM, 8 h).
The matching figures for SQEEAQGLPSSELDAVENQLKWAS [ZNF24]: 5.32 ± 0.2 and 5.08 ± 0.38.
Turning to SQIQYMNTVVSTYVTTNVSLIPPR [TMEM106C], the protein stability index runs as follows: (treatment: DMSO) 2.12 ± 0.22; (treatment: MLN4924 1 uM, 8 h) 2.07 ± 0.12.
The matching figures for SQLPQVLHVSLGQKLVAAYVLGLL [MOSPD3]: 3.26 ± 0.94 and 2.75 ± 1.2.
The matching figures for SRKNATQPPNAEEESGSSSASEEE [INTS3]: 5.53 ± 0.12 and 5.71 ± 0.14.
The matching figures for SRNFIERNHMENGGDHRYVNNYTN [TRIM29]: 3.46 ± 0.22 and 3.57 ± 0.18.
SRPNGTSAMLLVTLGKVLKVIVVM [MED27]: the protein stability index reads like this: (treatment: DMSO) 2.88 ± 0.46; (treatment: MLN4924 1 uM, 8 h) 2.93 ± 0.68.
The matching figures for SRREREPEPPAAVDFLEPDSGTCP [FCHO1]: 5.43 ± 0.22 and 5.44 ± 0.33.
The like results for SRSNNMGIVGGFTQMIREGGARSL [SLC25A25] were, in that order, 3.17 ± 0.27 and 3.47 ± 0.18.
The matching figures for SSATTYFWYREALDISDSISESGG [SLC6A17]: 2.62 ± 0.46 and 2.73 ± 0.34.
In the case of SSISSTSNEQLKVTQEPRAKKGRR [ZMYND11], the protein stability index was 5.24 ± 0.48 (treatment: DMSO) and 5.45 ± 0.077 (treatment: MLN4924 1 uM, 8 h).
For SSLTADLLSVDAFAAPSPATTASP [SNAP91], the protein stability index is, setting by setting: (treatment: DMSO) 4.65 ± 0.19; (treatment: MLN4924 1 uM, 8 h) 4.7 ± 0.083.
The matching figures for SSNLGQHQRIHTGEKPFECNECGK [ZNF232]: 4.78 ± 0.22 and 5.01 ± 0.19.
The like results for SSSFTSIASEWFLIANRSYKVSAA [SLC22A15] were, in that order, 2.26 ± 0.47 and 2.42 ± 0.31.
On to SSSLAQHQRKHAGEKPFECRQRLI [ZNF8], for which the protein stability index is, setting by setting: (treatment: DMSO) 3.74 ± 0.18; (treatment: MLN4924 1 uM, 8 h) 3.69 ± 0.17.
Regarding STDSGFCLDSPGPLDSKENLENPM [CDC25A], the protein stability index reads like this: (treatment: DMSO) 5.32 ± 0.12; (treatment: MLN4924 1 uM, 8 h) 5.27 ± 0.14.
The like results for STKMDCVWSNWKSQAIDLLYWRDI [RTN1] were, in that order, 2.37 ± 0.34 and 2.27 ± 0.28.
Take STPAPAERPLPNPEGLDSDFLAVL [SLA]: the protein stability index reads like this: (treatment: DMSO) 4.29 ± 0.35; (treatment: MLN4924 1 uM, 8 h) 4.26 ± 0.21.
The matching figures for STPRCAQQAALPRLSRRMASQHSY [CBY2]: 2.3 ± 0.29 and 2.37 ± 0.079.
The like results for STSFMSSSSSSSSWLTRRAIRPEN [EMD] were, in that order, 3.39 ± 0.35 and 3.38 ± 0.16.
The matching figures for SVGHNWRKRMGTRRGRHEQSPTSR [C22orf15]: 4.32 ± 0.065 and 4.49 ± 0.25.
The sequence SVTGLDPEARYLFLLDVIPVDGAR [TBX6] registered a protein stability index (treatment: DMSO) of 2.15 ± 0.47 and a protein stability index (treatment: MLN4924 1 uM, 8 h) of 2 ± 0.13.
